Series [1] relates to HeLa Kyoto. As to the kind of experiment: melting temperature (median over replicates), in situ; higher = more thermally stable.
The test system of series [2] is HeLa Kyoto. Briefly: solubility change mitosis vs G1/S (difference of NP-40 vs SDS log2 ratios) (log2 ratio difference); higher = more soluble in mitosis.
The subject of series [3] is HeLa Kyoto. As to the kind of experiment: thermal stability score vs G1/S (z-score of summed log2 fold changes over temperatures); higher = more thermally stable than in G1/S.
Series [4] relates to HeLa Kyoto. As to the kind of experiment: solubility in G1/S (NP-40 vs SDS abundance) (log2 ratio); higher = more soluble. The note with it: cell cycle stage: G1/S.
[5] abbreviates: cell cycle stage: early G1 (4.5 h after nocodazole release).
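For melting temperature (median over replicates), in situ in this document: HeLa Kyoto cells synchronized by double thymidine or nocodazole block, proteins quantified by TMT10plex mass spectrometry, three independent biological replicates.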
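For solubility change mitosis vs G1/S (difference of NP-40 vs SDS log2 ratios) in this document: synchronized HeLa Kyoto cells (double thymidine block for G1/S, nocodazole release for mitosis), protein amounts in NP-40 versus SDS lysates quantified by mass spectrometry, three biological replicates.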
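For solubility in G1/S (NP-40 vs SDS abundance) in this document: HeLa Kyoto cells arrested at G1/S by double thymidine block, proteins quantified by TMT10plex mass spectrometry in mild NP-40 versus SDS extracts, three biological replicates.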
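For thermal stability score vs G1/S (z-score of summed log2 fold changes over temperatures) in this document: synchronized HeLa Kyoto cells, proteins quantified by TMT10plex mass spectrometry, three biological replicates, mitosis taken 0.5 h after nocodazole release, G1/S directly after double thymidine block.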

In the case of “MQEKDASSQGFLPHFQHFATQAIHVGQDPEQWTSRAVVPPISLSTTFKQGAPGQHSGFEYSRSGNPTRNCLEKAVAALDGAKYCLAFASGLAATVTITHLLKAGDQIICMDDVYGGTNRYFRQVASEFGLKISFVDCSKIKLLEAAITPETKLVWIETPTNPTQKVIDIEGCAHIVHKHGDIILVVDNTFMSPYFQRPLALGADISMYSATKYMNGHSDVVMGLVSVNCESLHNRLRFLQNSLGAVPSPIDCYLCNRGLKTLHVRMEKHFKNGMAVAQFLESNPWVEKVIYPGLPSHPQHELVKRQCTGCTGMVTFYIKGTLQHAEIFLKNLKLFTLAESLGGFESLAELPAIMTHASVLKNDRDVLGISDTLIRLSVGLEDEEDLLEDLDQALKAAHPPSGSHS [CTH]”, the melting temperature in series [1] (cell cycle stage: G1/S) was determined as 59 °C; in series [1] (cell cycle stage: mitosis), 58.5 °C. Also, the “solubility change mitosis (log2)” value in series [2] was -0.134. Besides, the thermal stability score in series [3] (setting [5]) was -1.76; in series [3] (cell cycle stage: mitosis), -0.741. The “solubility in G1/S (log2)” value in series [4] stood at 0.283.
For the sequence “MQGPPRSLRAGLSLDDFIPGHLQSHIGSSSRGTRVPVIRNGGSNTLNFQFHDPAPRTVCNGGYTPRRDASQHPDPAWYQTWPGPGSKPSASTKIPASQHTQNWSATWTKDSKRRDKRWVKYEGIGPVDESGMPIAPRSSVDRPRDWYRRMFQQIHRKMPDLQLDWTFEEPPRDPRHLGAQQRPAHRPGPATSSSGRSWDHSEELPRSTFNYRPGAFSTVLQPSNQVLRRREKVDNVWTEESWNQFLQELETGQRPKKPLVDDPGEKPSQPIEVLLERELAELSAELDKDLRAIETRLPSPKSSPAPRRAPEQRPPAGPASAWSSSYPHAPYLGSARSLSPHKMADGGSPFLGRRDFVYPSSTRDPSASNGGGSPARREEKKRKAARLKFDFQAQSPKELTLQKGDIVYIHKEVDKNWLEGEHHGRLGIFPANYVEVLPADEIPKPIKPPTYQVLEYGEAVAQYTFKGDLEVELSFRKGEHICLIRKVNENWYEGRITGTGRQGIFPASYVQVSREPRLRLCDDGPQLPTSPRLTAAARSARHPSSPSALRSPADPIDLGGQTSPRRTGFSFPTQEPRPQTQNLGTPGPALSHSRGPSHPLDLGTSSPNTSQIHWTPYRAMYQYRPQNEDELELREGDRVDVMQQCDDGWFVGVSRRTQKFGTFPGNYVAPV [SORBS3]”, the melting temperature in series [1] (cell cycle stage: G1/S) was 51.2 °C; in series [1] (cell cycle stage: mitosis), 52 °C. In addition, the “solubility change mitosis (log2)” value in series [2] was -0.0255. For the same sequence, the thermal stability score was -0.822 in series [3] (setting [5]) and 0.186 in series [3] (cell cycle stage: mitosis). Besides, the “solubility in G1/S (log2)” value in series [4] was found to be 0.169.
Take “MQNYKYDKAIVPESKNGGSPALNNNPRRSGSKRVLLICLDLFCLFMAGLPFLIIETSTIKPYHRGFYCNDESIKYPLKTGETINDAVLCAVGIVIAILAIITGEFYRIYYLKKSRSTIQNPYVAALYKQVGCFLFGCAISQSFTDIAKVSIGRLRPHFLSVCNPDFSQINCSEGYIQNYRCRGDDSKVQEARKSFFSGHASFSMYTMLYLVLYLQARFTWRGARLLRPLLQFTLIMMAFYTGLSRVSDHKHHPSDVLAGFAQGALVACCIVFFVSDLFKTKTTLSLPAPAIRKEILSPVDIIDRNNHHNMM [PLPP3]”: the melting temperature in series [1] (cell cycle stage: G1/S) came out at 57 °C; in series [1] (cell cycle stage: mitosis), 55.7 °C. The “solubility change mitosis (log2)” value in series [2] was -0.139. Moreover, the thermal stability score in series [3] (setting [5]) is -1.69; in series [3] (cell cycle stage: mitosis), 5.11. Also, the “solubility in G1/S (log2)” value in series [4] was -0.0783.
In series [1] (cell cycle stage: G1/S), “MQRALPGARQHLGAILASASVVVKALCAAVLFLYLLSFAVDTGCLAVTPGYLFPPNFWIWTLATHGLMEQHVWDVAISLTTVVVAGRLLEPLWGALELLIFFSVVNVSVGLLGAFAYLLTYMASFNLVYLFTVRIHGALGFLGGVLVALKQTMGDCVVLRVPQVRVSVMPMLLLALLLLLRLATLLQSPALASYGFGLLSSWVYLRFYQRHSRGRGDMADHFAFATFFPEILQPVVGLLANLVHSLLVKVKICQKTVKRYDVGAPSSITISLPGTDPQDAERRRQLALKALNERLKRVEDQSIWPSMDDDEEESGAKVDSPLPSDKAPTPPGKGAAPESSLITFEAAPPTL [TMEM115]” gave a melting temperature of 55.8 °C. Further, the “solubility change mitosis (log2)” value in series [2] was 0.0464. Besides, the thermal stability score in series [3] (setting [5]) was -2.84; in series [3] (cell cycle stage: mitosis), -3.54. Besides, in series [4], the “solubility in G1/S (log2)” value was -0.146.
Consider “MQSTSNHLWLLSDILGQGATANVFRGRHKKTGDLFAIKVFNNISFLRPVDVQMREFEVLKKLNHKNIVKLFAIEEETTTRHKVLIMEFCPCGSLYTVLEEPSNAYGLPESEFLIVLRDVVGGMNHLRENGIVHRDIKPGNIMRVIGEDGQSVYKLTDFGAARELEDDEQFVSLYGTEEYLHPDMYERAVLRKDHQKKYGATVDLWSIGVTFYHAATGSLPFRPFEGPRRNKEVMYKIITGKPSGAISGVQKAENGPIDWSGDMPVSCSLSRGLQVLLTPVLANILEADQEKCWGFDQFFAETSDILHRMVIHVFSLQQMTAHKIYIHSYNTATIFHELVYKQTKIISSNQELIYEGRRLVLEPGRLAQHFPKTTEENPIFVVSREPLNTIGLIYEKISLPKVHPRYDLDGDASMAKAITGVVCYACRIASTLLLYQELMRKGIRWLIELIKDDYNETVHKKTEVVITLDFCIRNIEKTVKVYEKLMKINLEAAELGEISDIHTKLLRLSSSQGTIETSLQDIDSRLSPGGSLADAWAHQEGTHPKDRNVEKLQVLLNCMTEIYYQFKKDKAERRLAYNEEQIHKFDKQKLYYHATKAMTHFTDECVKKYEAFLNKSEEWIRKMLHLRKQLLSLTNQCFDIEEEVSKYQEYTNELQETLPQKMFTASSGIKHTMTPIYPSSNTLVEMTLGMKKLKEEMEGVVKELAENNHILERFGSLTMDGGLRNVDCL [TBK1]”, for which the melting temperature in series [1] (cell cycle stage: G1/S) and in series [1] (cell cycle stage: mitosis) was 48.6 °C each time. Also, the “solubility change mitosis (log2)” value in series [2] was -0.105. Moreover, the thermal stability score in series [3] (setting [5]) came out at 0.969; in series [3] (cell cycle stage: mitosis) it was 1.43. In addition, the “solubility in G1/S (log2)” value in series [4] was -0.00961.
In the case of “MQWNVPRTVSRLARRTCLEPHNAGLFGHCQNVKGPLLLYNAESKVVLVQGPQKQWLHLSAAQCVAKERRPLDAHPPQPGVLRHKQGKQHVSFRRVFSSSATAQGTPEKKEEPDPLQDKSISLYQRFKKTFRQYGKVLIPVHLITSGVWFGTFYYAALKGVNVVPFLELIGLPDSVVSILKNSQSGNALTAYALFKIATPARYTVTLGGTSVTVKYLRSHGYMSTPPPVKEYLQDRMEETKELITEKMEETKDRLTEKLQETKEKVSFKKKVE [FAM210A]”, the melting temperature in series [1] (cell cycle stage: G1/S) was 55.7 °C; in series [1] (cell cycle stage: mitosis), 54.9 °C. Also, the “solubility change mitosis (log2)” value in series [2] was -0.102. For the same sequence, the thermal stability score in series [3] (setting [5]) was -3.65; in series [3] (cell cycle stage: mitosis) it was -2.22. Besides, in series [4], the “solubility in G1/S (log2)” value worked out at 0.234.
As for “MRAVLAREMDGRRVLGRFWSGWRRGLGVRPVPEDAGFGTEARHQRQPRGSCQRSGPLGDQPFAGLLPKNLSREELVDALRAAVVDRKGPLVTLNKPQGLPVTGKPGELTLFSVLPELSQSLGLREQELQVVRASGKESSGLVLLSSCPQTASRLQKYFTHARRAQRPTATYCAVTDGIPAASEGKIQAALKLEHIDGVNLTVPVKAPSRKDILEGVKKTLSHFRVVATGSGCALVQLQPLTVFSSQLQVHMVLQLCPVLGDHMYSARVGTVLGQRFLLPAENNKPQRQVLDEALLRRLHLTPSQAAQLPLHLHLHRLLLPGTRARDTPVELLAPLPPYFSRTLQCLGLRLQ [RPUSD3]”, the melting temperature in series [1] (cell cycle stage: G1/S) worked out at 50.1 °C; in series [1] (cell cycle stage: mitosis), 51.2 °C. Moreover, in series [2], the “solubility change mitosis (log2)” value amounted to 0.0294. Also, the thermal stability score in series [3] (setting [5]) is -1.94; in series [3] (cell cycle stage: mitosis), 0.774. The “solubility in G1/S (log2)” value in series [4] was determined as 0.193.

Source of the values: the supplement of paper PMC5998384.
